Drawing on patent US20260152571A1, this text covers Percentage of Positive Cells (%) for 1 substance.

The target in experiment [1] is HLA-A2 on T2 cells without added peptide (human). The experiment is described as follows: flow cytometry, T2 cells without peptide, antibody 10 µg/mL.
Experiment [2] has as its target MED13L/HLA complex on MED13L-pulsed T2 cells (human). The experiment can be described thus: flow cytometry, T2 cells pulsed with 25 µM MED13L peptide, antibody 10 µg/mL. On the technique in general: In flow cytometry, cells or beads pass a laser one at a time.
Experiment [3] deals with WT1RMF/HLA-A2 complex on cells (human). The experiment can be described thus: flow cytometry, T2 cells pulsed with 25 µM WT1RMF, antibody 10 µg/mL.
In experiment [4] the target is PIGQ/HLA complex on PIGQ-pulsed T2 cells (human). The experiment can be described thus: flow cytometry, T2 cells pulsed with 25 µM PIGQ peptide, antibody 10 µg/mL.

Regarding ISO (antibody), the Percentage of Positive Cells (%) in experiment [1] worked out at 5.43%; in experiment [2], 5.38%; in experiment [3], 4.93%; in experiment [4], 4.78%.
